According to IntAct's records for PubMed 9867828:

B1: Protein S100-A9 (Homo sapiens), P06702 (parent)
chain: MTCKMSQLERNIETIINTFHQYSVKLGHPDTLNQGEFKELVRKDLQNFLKKENKNEKVIEHIMEDLDTNADKQLSFEEFIMLMARLTWASHEKMHEGDEGPGHHHKPGLGEGTP
partner: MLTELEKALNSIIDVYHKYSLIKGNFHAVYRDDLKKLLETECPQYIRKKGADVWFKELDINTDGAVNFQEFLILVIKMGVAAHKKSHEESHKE

Variants of: B1
Conditions: with S100A8, P05109

Row | Variant | effect of a mutation on the interaction
1 | MTSKMSQLERNIETIINTFHQYSVKLGHPDTLNQGEFKELVRKDLQNFLKKENKNEKVIEHIMEDLDTNADKQLSFEEFIMLMARLTWASHEKMHEGDEGPGHHHKPGLGEGTP [C3S] | decreasing interaction
